The values below come from article PMC12365241.

In general, stoichiometry N refers to the number of molecules, sites or subunits per partner or assembly.

The target of the test is PorK (Porphyromonas gingivalis (endogenous)). Nature of the test: cryo-EM structure.

Where “and” joins values, the source holds several entries; their conditions need not be identical. Equal values may be shown once.

For the substance PorK (natural protein), the stoichiometry N was 32 and 33.
